# According to article PMC8307404, “Crystal Structure-Guided Design of Bisubstrate Inhibitors and Photoluminescent Probes for Protein Kinases of the PIM Family” (Molecules, 2021):
# Square brackets hold non-standard residues; d marks the D form. Peptide text beside a SMILES is read from it. * marks the point of attachment. X3 = O=C(CCCCCNCc1nc2c(sc3cc(Br)cnc32)c(=O)[nH]1)*
# Legend:
# Test in all cases: Kinase profiling (radiometric filter-binding)
# Format in all cases: biochemical
# IKK = target: T1, IKK (Homo sapiens, UniProt Q14164); settings: second of two IKK lines (Greek letter lost), 1 µM inhibitor, read-out: Residual activity, %
# T1 sequence (Q14164 1-716): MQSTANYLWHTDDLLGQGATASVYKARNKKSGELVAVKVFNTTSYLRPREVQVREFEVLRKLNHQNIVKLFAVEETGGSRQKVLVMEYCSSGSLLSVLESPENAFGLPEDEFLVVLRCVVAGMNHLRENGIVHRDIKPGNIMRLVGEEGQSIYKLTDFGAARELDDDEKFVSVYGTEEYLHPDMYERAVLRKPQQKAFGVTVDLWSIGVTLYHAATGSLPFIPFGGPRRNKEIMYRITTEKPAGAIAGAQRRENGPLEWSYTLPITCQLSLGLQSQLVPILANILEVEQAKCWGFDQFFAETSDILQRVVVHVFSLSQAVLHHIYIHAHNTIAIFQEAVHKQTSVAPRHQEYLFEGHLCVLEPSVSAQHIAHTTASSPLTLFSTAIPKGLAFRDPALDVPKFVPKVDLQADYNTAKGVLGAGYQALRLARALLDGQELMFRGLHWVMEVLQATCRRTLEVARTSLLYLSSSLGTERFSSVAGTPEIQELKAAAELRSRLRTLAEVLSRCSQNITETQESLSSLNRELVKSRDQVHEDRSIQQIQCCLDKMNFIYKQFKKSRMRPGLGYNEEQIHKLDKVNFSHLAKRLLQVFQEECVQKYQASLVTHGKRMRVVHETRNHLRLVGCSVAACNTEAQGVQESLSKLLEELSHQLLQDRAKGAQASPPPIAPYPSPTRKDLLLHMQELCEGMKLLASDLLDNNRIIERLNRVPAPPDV
# In short: (§1)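 Percent activity retained relative to the no-inhibitor reaction is given. Assays used human enzymes, radiolabel filter capture, ATP concentrations not exceeding the respective KM, and a final inhibitor level of 1 µM.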
# NEK6 = NEK6 (Homo sapiens, UniProt Q9HC98); settings: NEK6, 1 µM inhibitor; read-out: Residual activity, %
# NEK6, sequence (Q9HC98 whole entry): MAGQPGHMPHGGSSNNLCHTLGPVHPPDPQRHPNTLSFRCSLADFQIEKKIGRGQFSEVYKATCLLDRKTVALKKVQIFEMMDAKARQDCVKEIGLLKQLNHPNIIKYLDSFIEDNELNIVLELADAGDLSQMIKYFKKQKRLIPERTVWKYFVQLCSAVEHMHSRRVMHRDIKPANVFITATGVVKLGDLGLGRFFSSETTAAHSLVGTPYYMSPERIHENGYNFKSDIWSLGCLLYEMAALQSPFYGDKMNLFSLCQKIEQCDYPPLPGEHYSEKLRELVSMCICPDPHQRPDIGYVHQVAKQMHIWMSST
# In short: as §1
# EPH-B4 = target: T2, EPH-B4 (Homo sapiens, UniProt P54760); settings: EPH-B4, 1 µM inhibitor; read-out: Residual activity, %
# T2 sequence (P54760 16-987): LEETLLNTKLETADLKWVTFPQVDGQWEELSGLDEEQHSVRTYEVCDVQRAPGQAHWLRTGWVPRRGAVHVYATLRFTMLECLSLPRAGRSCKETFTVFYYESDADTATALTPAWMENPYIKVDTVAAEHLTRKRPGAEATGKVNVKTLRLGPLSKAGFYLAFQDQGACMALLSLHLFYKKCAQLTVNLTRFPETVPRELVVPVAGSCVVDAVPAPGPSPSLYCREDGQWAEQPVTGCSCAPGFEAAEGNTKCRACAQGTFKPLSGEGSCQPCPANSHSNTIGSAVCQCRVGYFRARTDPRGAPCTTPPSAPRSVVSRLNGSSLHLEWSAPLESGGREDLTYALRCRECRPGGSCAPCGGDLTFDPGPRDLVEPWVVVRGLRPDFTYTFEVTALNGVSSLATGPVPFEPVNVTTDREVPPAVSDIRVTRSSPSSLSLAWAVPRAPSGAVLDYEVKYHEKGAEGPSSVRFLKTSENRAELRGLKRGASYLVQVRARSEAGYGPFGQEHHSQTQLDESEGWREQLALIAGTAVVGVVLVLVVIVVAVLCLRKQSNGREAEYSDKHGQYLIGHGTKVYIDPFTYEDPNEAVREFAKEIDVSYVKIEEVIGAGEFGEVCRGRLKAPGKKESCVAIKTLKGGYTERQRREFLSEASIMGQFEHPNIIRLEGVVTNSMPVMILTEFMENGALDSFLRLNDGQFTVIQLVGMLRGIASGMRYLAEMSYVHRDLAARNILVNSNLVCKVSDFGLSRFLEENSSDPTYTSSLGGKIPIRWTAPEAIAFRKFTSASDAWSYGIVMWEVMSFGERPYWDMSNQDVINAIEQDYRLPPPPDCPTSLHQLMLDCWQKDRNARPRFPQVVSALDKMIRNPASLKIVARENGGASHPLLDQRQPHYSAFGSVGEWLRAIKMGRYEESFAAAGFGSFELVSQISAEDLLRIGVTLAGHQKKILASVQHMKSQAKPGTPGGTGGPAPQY
# In short: as §1
# PAK4 = PAK4 (Homo sapiens, UniProt O96013); settings: PAK4, 1 µM inhibitor; read-out: Residual activity, %
# PAK4, sequence (O96013 whole entry): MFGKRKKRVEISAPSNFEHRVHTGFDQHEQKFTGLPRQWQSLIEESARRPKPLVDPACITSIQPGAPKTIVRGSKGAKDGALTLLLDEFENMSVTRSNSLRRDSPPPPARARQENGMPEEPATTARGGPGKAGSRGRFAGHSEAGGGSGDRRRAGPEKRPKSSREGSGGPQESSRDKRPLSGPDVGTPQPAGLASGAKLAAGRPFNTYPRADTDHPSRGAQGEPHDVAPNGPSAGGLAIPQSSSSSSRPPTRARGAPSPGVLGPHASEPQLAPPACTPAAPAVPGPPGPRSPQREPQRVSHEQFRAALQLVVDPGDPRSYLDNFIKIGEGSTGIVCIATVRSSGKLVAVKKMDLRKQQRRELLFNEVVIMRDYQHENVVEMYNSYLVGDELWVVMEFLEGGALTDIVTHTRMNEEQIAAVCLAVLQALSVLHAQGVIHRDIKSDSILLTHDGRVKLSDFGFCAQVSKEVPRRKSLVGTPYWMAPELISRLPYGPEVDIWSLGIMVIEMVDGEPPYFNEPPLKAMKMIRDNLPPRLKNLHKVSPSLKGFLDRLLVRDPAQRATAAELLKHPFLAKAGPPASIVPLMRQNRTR
# In short: as §1
# OSR1 = OSR1 (Homo sapiens, UniProt O95747); settings: OSR1, 1 µM inhibitor; read-out: Residual activity, %
# OSR1, sequence (O95747 whole entry): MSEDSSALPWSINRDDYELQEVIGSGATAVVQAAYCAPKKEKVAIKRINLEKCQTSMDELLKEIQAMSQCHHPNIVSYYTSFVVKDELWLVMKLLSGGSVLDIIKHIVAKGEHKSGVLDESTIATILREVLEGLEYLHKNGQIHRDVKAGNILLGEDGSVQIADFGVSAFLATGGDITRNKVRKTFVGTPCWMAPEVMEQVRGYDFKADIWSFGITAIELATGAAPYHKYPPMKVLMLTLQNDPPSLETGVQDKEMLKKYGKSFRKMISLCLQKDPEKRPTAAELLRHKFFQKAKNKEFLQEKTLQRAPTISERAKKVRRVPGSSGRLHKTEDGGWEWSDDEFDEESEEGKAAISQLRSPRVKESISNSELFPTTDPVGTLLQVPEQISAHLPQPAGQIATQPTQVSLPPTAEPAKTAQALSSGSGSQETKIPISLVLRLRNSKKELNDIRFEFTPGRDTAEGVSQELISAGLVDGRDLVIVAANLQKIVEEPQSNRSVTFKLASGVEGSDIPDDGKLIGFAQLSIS
# In short: as §1
# EF2K = EF2K (Homo sapiens, UniProt O00418); settings: 1 µM inhibitor, read-out: Residual activity, %
# In short: as §1
# MARK2 = MARK2 (Homo sapiens, UniProt Q7KZI7); settings: MARK2, 1 µM inhibitor; read-out: Residual activity, %
# MARK2, sequence (Q7KZI7 whole entry): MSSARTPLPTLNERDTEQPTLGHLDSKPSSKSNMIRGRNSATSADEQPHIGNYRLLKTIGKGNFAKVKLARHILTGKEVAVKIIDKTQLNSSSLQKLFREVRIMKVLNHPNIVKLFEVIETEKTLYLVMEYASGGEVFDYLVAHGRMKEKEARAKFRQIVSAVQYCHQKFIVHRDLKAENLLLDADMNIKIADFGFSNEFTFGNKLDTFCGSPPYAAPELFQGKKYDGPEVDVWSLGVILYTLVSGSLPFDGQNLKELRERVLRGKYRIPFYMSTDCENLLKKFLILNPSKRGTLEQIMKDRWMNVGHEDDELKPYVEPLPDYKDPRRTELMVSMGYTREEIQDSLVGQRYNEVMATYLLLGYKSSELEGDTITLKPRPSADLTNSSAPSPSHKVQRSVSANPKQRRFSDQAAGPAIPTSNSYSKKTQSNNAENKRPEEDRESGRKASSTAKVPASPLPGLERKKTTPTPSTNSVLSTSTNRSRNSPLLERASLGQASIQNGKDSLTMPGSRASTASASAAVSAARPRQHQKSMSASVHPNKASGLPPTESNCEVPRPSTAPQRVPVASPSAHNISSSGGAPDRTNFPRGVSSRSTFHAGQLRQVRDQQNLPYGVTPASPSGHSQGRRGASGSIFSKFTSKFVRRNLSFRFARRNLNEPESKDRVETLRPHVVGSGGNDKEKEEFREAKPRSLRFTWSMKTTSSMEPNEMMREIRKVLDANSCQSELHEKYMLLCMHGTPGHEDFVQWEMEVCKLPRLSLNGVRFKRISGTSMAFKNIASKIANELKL
# In short: as §1
# PDK1 = target: T3, PDK1 (Homo sapiens, UniProt O15530); settings: PDK1, 1 µM inhibitor; read-out: Residual activity, %
# T3 sequence (O15530 1-556): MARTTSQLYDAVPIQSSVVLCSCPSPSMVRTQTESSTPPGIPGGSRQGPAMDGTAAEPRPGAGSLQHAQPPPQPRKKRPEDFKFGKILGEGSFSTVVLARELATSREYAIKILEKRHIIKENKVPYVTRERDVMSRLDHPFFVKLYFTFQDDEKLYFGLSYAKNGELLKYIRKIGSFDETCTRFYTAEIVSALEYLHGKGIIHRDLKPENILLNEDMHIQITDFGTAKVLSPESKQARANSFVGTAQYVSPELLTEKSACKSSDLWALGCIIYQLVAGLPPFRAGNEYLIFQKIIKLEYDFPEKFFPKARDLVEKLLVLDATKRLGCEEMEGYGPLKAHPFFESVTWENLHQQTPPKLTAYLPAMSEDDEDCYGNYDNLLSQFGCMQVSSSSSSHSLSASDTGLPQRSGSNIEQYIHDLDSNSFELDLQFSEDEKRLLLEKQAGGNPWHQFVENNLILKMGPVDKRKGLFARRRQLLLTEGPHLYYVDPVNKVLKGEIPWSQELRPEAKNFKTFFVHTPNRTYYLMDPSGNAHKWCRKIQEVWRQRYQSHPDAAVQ
# In short: as §1
Compound,remaining activity at 1 µM (IKK),remaining activity at 1 µM (NEK6),remaining activity at 1 µM (EPH-B4),remaining activity at 1 µM (PAK4),remaining activity at 1 µM (OSR1),remaining activity at 1 µM (EF2K),remaining activity at 1 µM (MARK2),remaining activity at 1 µM (PDK1)
"N=C(N)NCCC[C@@H](NC(=O)CNC(=O)[C@@H](CCCNC(=N)N)NC(=O)[C@@H](CCCNC(=N)N)NC(=O)CCCCCCCNCc1nc2c(sc3cc(Br)cnc32)c(=O)[nH]1)C(=O)N[C@H](CCCCN)C(N)=O [Compound 1, BPTP-Aoc-(D-Arg)2-Gly-D-Arg-D-Lys-NH2]",116 ± 9%,107 ± 11%,104 ± 2%,91%,114 ± 7%,104 ± 2%,106 ± 10%,116 ± 3%
"N=C(N)NCCC[C@@H](NC(=O)CCCCCNCc1nc2c(sc3cc(Br)cnc32)c(=O)[nH]1)C(=O)N[C@H](CCCNC(=N)N)C(=O)N[C@H](CCCNC(=N)N)C(=O)N[C@H](CCCNC(=N)N)C(=O)N[C@H](CCCNC(=N)N)C(=O)N[C@H](CCCNC(=N)N)C(=O)N[C@H](CCCCN)C(N)=O [ARC-3126, BPTP-Ahx-(D-Arg)6-D-Lys-NH2] (X3-[dR][dR][dR][dR][dR][dR][dK]-NH2)",118 ± 12%,85 ± 17%,101 ± 10%,71 ± 42%,116 ± 12%,85 ± 10%,103 ± 7%,111 ± 13%
"N=C(N)NCCC[C@@H](NC(=O)CCCCCNC(=O)Cn1cnc2c(I)c(I)c(I)c(I)c21)C(=O)N[C@H](CCCNC(=N)N)C(=O)N[C@H](CCCNC(=N)N)C(=O)N[C@H](CCCNC(=N)N)C(=O)N[C@H](CCCNC(=N)N)C(=O)N[C@H](CCCNC(=N)N)C(=O)N[C@H](CCCCN)C(N)=O [ARC-3125, TIBI-CH2-C(=O)-Ahx-(D-Arg)6-D-Lys-NH2]",77 ± 4%,97%,119 ± 7%,50 ± 2%,73 ± 2%,103 ± 1%,86 ± 4%,123 ± 7%
"N=C(N)NCCC[C@@H](NC(=O)CNC(=O)[C@@H](CCCNC(=N)N)NC(=O)[C@@H](CCCNC(=N)N)NC(=O)CCCCCCCNCc1nc2c(sc3ccc(Br)cc32)c(=O)[nH]1)C(=O)N[C@H](CCCCN)C(N)=O [Compound 2, BBTP-Aoc-(D-Arg)2-Gly-D-Arg-D-Lys-NH2]",104 ± 15%,126 ± 5%,118 ± 11%,98 ± 14%,114 ± 4%,98 ± 7%,107 ± 4%,121 ± 7%
"N=C(N)NCCC[C@@H](NC(=O)CNC(=O)[C@@H](CCCNC(=N)N)NC(=O)[C@@H](CCCNC(=N)N)NC(=O)Cn1cc(CNCc2nc3c(sc4ccc(Br)cc43)c(=O)[nH]2)nn1)C(=O)N[C@H](CCCCN)C(N)=O [Compound 3, BBTP-Amt-(D-Arg)2-Gly-D-Arg-D-Lys-NH2]",122 ± 12%,117 ± 23%,98 ± 13%,77 ± 13%,107 ± 14%,102 ± 3%,79%,118 ± 16%
